Experiments:
[1] = biological target: T1, Calmodulin (CaM) (UniProt P0DP23 1-149); test: ITC; iTC200, room temperature, 20 mM Tris-HCl pH 7.5, 500 mM NaCl, 5 mM EGTA (apo-CaM, absence of calcium); 0.05-0.1 mM in the cell, 0.5-1.0 mM in the syringe; conditions: both partners purified
T1 construct: Calmodulin, full length; apo-CaM (5 mM EGTA) and holo-CaM (10 mM CaCl2) are the same protein; the assays tell them apart; Se-Met-substituted apo-CaM was used for anomalous signals in the structure determination; also called apo-CaM; Ca2+-free CaM; source: Escherichia coli, purified using chromatography techniques

[2] = biological target: T1, Calmodulin (CaM); test: ITC; iTC200, room temperature, 20 mM Tris-HCl pH 7.5, 500 mM NaCl, 10 mM CaCl2 (holo-CaM, presence of calcium); 0.05-0.1 mM in the cell, 0.5-1.0 mM in the syringe; conditions: both partners purified

Kd [1]: 1160 µM
Kd [2]: 7.14 µM
B1: AtBAG5-IQR (AtBAG5-long with Ile57, Gln58 and Arg62 substituted with alanine) (domain or fragment)
chain: NATAAAARAASGYASYRIRNLYKKISSINREANRVQSIIQRQETVDAIRSDEKERLRMNETLMALLLKLDSVPGLDPTIREARRKVSRKIVGMQEILDSISETKD
notes: AtBAG5, Arabidopsis thaliana, residues 49-153 (AtBAG5-long) with three conserved residues of the IQ motif changed to alanine; also called IQ motif mutant; AtBAG5-IQR mutant; source: Escherichia coli, purified using chromatography techniques

From PMC4990970 (Scientific Reports, 2016)
